Reference: PMC3510508, “Rbg1–Tma46 dimer structure reveals new functional domains and their role in polysome recruitment” (Nucleic Acids Research, 2012)

Tests used:
[1] = substrate: Nc1nc2c(ncn2[C@@H]2O[C@H](COP(=O)(O)OP(=O)(O)OP(=O)(O)O)[C@@H](O)[C@H]2O)c(=O)[nH]1; test: malachite green phosphate release; assay type: biochemical, Saccharomyces cerevisiae; conditions: 100 mM KCl, 50 mM Tris pH 7.5, 5 mM MgCl2, 37°C, 1 h, 20 μM protein
From the text: malachite green phosphate release on Rbg1fl–Tma46_239–345 (Tma46Δα1)

[2] = substrate: Nc1nc2c(ncn2[C@@H]2O[C@H](COP(=O)(O)OP(=O)(O)OP(=O)(O)O)[C@@H](O)[C@H]2O)c(=O)[nH]1; test: malachite green phosphate release; assay type: biochemical, Saccharomyces cerevisiae; conditions: 100 mM KCl, 50 mM Tris pH 7.5, 5 mM MgCl2, 37°C, 1 h, 20 μM protein; remark: listed apart in the source
From the text: malachite green phosphate release on Rbg1_1–294–Tma46_205–345 (ΔTGS)

[3] = molecular target: T1, 6His-tagged full-length Rbg1 (yeast) (UniProt P39729)
T1 sequence: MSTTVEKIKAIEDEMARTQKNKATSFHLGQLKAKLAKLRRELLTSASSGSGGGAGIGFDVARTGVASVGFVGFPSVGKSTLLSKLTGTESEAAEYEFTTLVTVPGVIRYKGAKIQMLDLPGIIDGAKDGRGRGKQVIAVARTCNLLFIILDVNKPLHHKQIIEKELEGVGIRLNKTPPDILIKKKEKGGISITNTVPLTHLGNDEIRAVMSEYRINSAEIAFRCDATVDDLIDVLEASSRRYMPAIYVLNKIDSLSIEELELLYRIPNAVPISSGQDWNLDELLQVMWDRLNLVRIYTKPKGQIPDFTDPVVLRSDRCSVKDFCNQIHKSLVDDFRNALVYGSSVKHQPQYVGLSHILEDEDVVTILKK

[4] = substrate: Nc1nc2c(ncn2[C@@H]2O[C@H](COP(=O)(O)OP(=O)(O)OP(=O)(O)O)[C@@H](O)[C@H]2O)c(=O)[nH]1; test: malachite green phosphate release; assay type: biochemical, Saccharomyces cerevisiae; conditions: 100 mM KCl, 50 mM Tris pH 7.5, 5 mM MgCl2, 37°C, 1 h, 20 μM protein; remark: listed apart in the source

B1: Rbg1fl–Tma46_239–345 (Tma46Δα1) (Saccharomyces cerevisiae S288C) (protein)
chain: MSTTVEKIKAIEDEMARTQKNKATSFHLGQLKAKLAKLRRELLTSASSGSGGGAGIGFDVARTGVASVGFVGFPSVGKSTLLSKLTGTESEAAEYEFTTLVTVPGVIRYKGAKIQMLDLPGIIDGAKDGRGRGKQVIAVARTCNLLFIILDVNKPLHHKQIIEKELEGVGIRLNKTPPDILIKKKEKGGISITNTVPLTHLGNDEIRAVMSEYRINSAEIAFRCDATVDDLIDVLEASSRRYMPAIYVLNKIDSLSIEELELLYRIPNAVPISSGQDWNLDELLQVMWDRLNLVRIYTKPKGQIPDFTDPVVLRSDRCSVKDFCNQIHKSLVDDFRNALVYGSSVKHQPQYVGLSHILEDEDVVTILKK
notes: 6His-tagged full-length Rbg1 with Tma46 residues 239-345 (lacks helix α1), expressed in E. coli; with Translation machinery-associated protein 46
With B1 the Km [1] was 191.2 ± 26.6 µM, the Vmax [1] was 3.7e-05 µmol/min/mg and the kcat [1] was 3.33e-05 s⁻¹.

B2: Rbg1_1–294–Tma46_205–345 (ΔTGS) (Saccharomyces cerevisiae S288C) (protein)
chain: MSTTVEKIKAIEDEMARTQKNKATSFHLGQLKAKLAKLRRELLTSASSGSGGGAGIGFDVARTGVASVGFVGFPSVGKSTLLSKLTGTESEAAEYEFTTLVTVPGVIRYKGAKIQMLDLPGIIDGAKDGRGRGKQVIAVARTCNLLFIILDVNKPLHHKQIIEKELEGVGIRLNKTPPDILIKKKEKGGISITNTVPLTHLGNDEIRAVMSEYRINSAEIAFRCDATVDDLIDVLEASSRRYMPAIYVLNKIDSLSIEELELLYRIPNAVPISSGQDWNLDELLQVMWDRLNLV
notes: 6His-tagged Rbg1 lacking TGS domain (residues 1-294), co-expressed in E. coli with Tma46 205-345; with Translation machinery-associated protein 46
B2 was tested, and the Km [2] was 426.3 ± 165 µM, the Vmax [2] was 1.66e-05 µmol/min/mg and the kcat [2] was 1.33e-05 s⁻¹.

B3: Tma46_(205–345 I241A) (domain or fragment)
chain: EQKRLERESLEKQPKITLEEFIETERGKLDKSKLTPATIANFAQWKKDHVIAKINAEKKLSSKRKPTGREIILKMSAENKSFETDNADMPDDVTQGSAWDLTEFTDALKKADHQDDGGIKDYGDGSNPTFDIKKANSATLA
B3 was tested, and the GTP hydrolysis (Malachite green), Vmax (nmol min^−1 mg^−1) [3] was 0.0406 and the GTP hydrolysis (Malachite green), kcat [3] was 3.83e-05 s⁻¹.

B4: Tma46_(205–345 I241A, F246A) (domain or fragment)
chain: EQKRLERESLEKQPKITLEEFIETERGKLDKSKLTPATIANAAQWKKDHVIAKINAEKKLSSKRKPTGREIILKMSAENKSFETDNADMPDDVTQGSAWDLTEFTDALKKADHQDDGGIKDYGDGSNPTFDIKKANSATLA
For B4, the GTP hydrolysis (Malachite green), Vmax (nmol min^−1 mg^−1) [3] was 0.0288 and the GTP hydrolysis (Malachite green), kcat [3] was 2.83e-05 s⁻¹.

B5: Tma46_(205–345 W249A K250E) (domain or fragment)
chain: EQKRLERESLEKQPKITLEEFIETERGKLDKSKLTPITIANFAQAEKDHVIAKINAEKKLSSKRKPTGREIILKMSAENKSFETDNADMPDDVTQGSAWDLTEFTDALKKADHQDDGGIKDYGDGSNPTFDIKKANSATLA
B5 was tested, and the GTP hydrolysis (Malachite green), Vmax (nmol min^−1 mg^−1) [3] was 0.0345 and the GTP hydrolysis (Malachite green), kcat [3] was 3.33e-05 s⁻¹.

B6: Rbg1Δ175–243+Gly–Tma46_205–345 (ΔS5D2L) (Saccharomyces cerevisiae S288C; DEL175-243/INS174G) (protein)
chain: MSTTVEKIKAIEDEMARTQKNKATSFHLGQLKAKLAKLRRELLTSASSGSGGGAGIGFDVARTGVASVGFVGFPSVGKSTLLSKLTGTESEAAEYEFTTLVTVPGVIRYKGAKIQMLDLPGIIDGAKDGRGRGKQVIAVARTCNLLFIILDVNKPLHHKQIIEKELEGVGIRLNGPAIYVLNKIDSLSIEELELLYRIPNAVPISSGQDWNLDELLQVMWDRLNLVRIYTKPKGQIPDFTDPVVLRSDRCSVKDFCNQIHKSLVDDFRNALVYGSSVKHQPQYVGLSHILEDEDVVTILKK
notes: 6His-tagged Rbg1 with S5D2L domain (175-243) replaced by one Gly, co-expressed in E. coli with Tma46 205-345; with Translation machinery-associated protein 46
B6 showed a Km [4] of 221.5 ± 159.2 µM, a Vmax [4] of 1.57e-05 µmol/min/mg and a kcat [4] of 1e-05 s⁻¹.
